From PMC9896810

Columns and labels:
[1] = target: the P1 (C3G-PAAA) and P2 (C3G-APAA) motifs; experiment: ITC; single-PRM mutants of C3G in the cell titrated with full-length CrkL or CrkL-SH3N; 25 °C; 1:1 model in SEDPHAT; N is the competent fraction of C3G
C3G P1 P1 (Homo sapiens) = C3G P1 P1 (Homo sapiens) (UniProt Q13905); conditions: cited from earlier work
[2] = target: T1, C3G full-length wild type (human, isoform a, residues 4-1077) (human) (UniProt Q13905)
T1 sequence: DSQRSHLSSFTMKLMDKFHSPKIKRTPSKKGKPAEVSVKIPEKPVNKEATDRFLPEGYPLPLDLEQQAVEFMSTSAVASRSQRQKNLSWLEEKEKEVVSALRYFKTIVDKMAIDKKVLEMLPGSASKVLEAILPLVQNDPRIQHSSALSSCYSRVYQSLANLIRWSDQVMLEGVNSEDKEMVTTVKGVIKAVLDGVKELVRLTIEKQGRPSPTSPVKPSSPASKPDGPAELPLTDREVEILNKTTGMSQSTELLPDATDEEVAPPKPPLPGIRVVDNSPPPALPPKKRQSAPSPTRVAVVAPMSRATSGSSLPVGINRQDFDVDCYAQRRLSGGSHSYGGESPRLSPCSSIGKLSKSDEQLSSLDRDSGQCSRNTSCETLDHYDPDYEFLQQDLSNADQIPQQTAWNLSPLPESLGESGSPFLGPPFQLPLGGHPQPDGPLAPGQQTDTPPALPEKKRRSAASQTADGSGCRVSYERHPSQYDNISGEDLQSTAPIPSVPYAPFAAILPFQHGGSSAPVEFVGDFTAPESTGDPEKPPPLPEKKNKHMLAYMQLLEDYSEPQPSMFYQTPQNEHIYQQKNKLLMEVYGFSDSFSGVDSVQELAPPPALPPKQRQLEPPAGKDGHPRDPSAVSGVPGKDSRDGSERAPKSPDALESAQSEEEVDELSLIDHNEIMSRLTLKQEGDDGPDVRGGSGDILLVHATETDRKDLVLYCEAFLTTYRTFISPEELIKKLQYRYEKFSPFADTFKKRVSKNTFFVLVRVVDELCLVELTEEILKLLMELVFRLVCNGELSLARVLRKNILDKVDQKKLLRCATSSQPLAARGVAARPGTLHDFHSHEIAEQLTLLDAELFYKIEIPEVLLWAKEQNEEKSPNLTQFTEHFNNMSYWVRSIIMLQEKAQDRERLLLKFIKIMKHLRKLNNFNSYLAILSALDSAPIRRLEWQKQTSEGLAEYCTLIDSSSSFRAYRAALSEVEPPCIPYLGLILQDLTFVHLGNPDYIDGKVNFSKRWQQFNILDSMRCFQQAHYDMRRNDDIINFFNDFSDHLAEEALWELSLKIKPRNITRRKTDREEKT

[3] = target: T2, Src-phosphorylated C3G (pC3G), wild type (human) (UniProt Q13905)
T2 sequence (chain, phosphotyrosines (phosphorylated in vitro by Src; sites not stated)): T1 sequence

Sequence of CrkL, full-length (human) (P46109 whole entry): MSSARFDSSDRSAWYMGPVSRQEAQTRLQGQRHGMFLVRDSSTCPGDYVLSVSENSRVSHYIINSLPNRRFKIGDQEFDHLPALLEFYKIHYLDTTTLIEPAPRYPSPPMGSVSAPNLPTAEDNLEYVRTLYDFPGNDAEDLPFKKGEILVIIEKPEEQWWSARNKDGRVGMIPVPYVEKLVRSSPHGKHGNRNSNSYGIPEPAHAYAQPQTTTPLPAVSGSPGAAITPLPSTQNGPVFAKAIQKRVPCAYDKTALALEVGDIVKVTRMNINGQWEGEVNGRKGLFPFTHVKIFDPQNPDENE
Sequence of CrkL (P46109 whole entry): as above

Substance | stoichiometry N [1] | Kd (C3G P1 P1 (Homo sapiens)) | AC50 of the dose-response activation of the GEF activity of C3G (1 µM) on Rap1b:mant-dGDP [2] | kmax of the dose-response activation of the GEF activity of C3G (1 µM) on Rap1b:mant-dGDP [2] | AC50 of the dose-response activation of the GEF activity of pC3G (0.2 µM) on Rap1b:mant-dGDP [3] | kmax of the dose-response activation of the GEF activity of pC3G (0.2 µM) on Rap1b:mant-dGDP [3]
CrkL, full-length (human) (from UniProt P46109 1-303) (natural protein) | 0.8 to 0.9 | – | – | – | – | –
CrkL (from UniProt P46109) | – | 2.8 µM | – | – | – | –
CrkII-L-II chimera (from UniProt P46108-1 1-133; P46109 125-182; P46108-1 191-304) | – | – | 18.7 µM | 7900 M⁻¹ s⁻¹ | 1.6 µM | 0.03 s^-1 µM^-1
CrkL-II-L chimera (from UniProt P46109 1-124; P46108-1 134-191; P46109 183-303) | – | – | 16.7 µM | 7900 M⁻¹ s⁻¹ | 2.3 µM | 0.0336 s^-1 µM^-1
